From publication PMC2863070

B1: clone 9.30 (peptide)
chain 1: CAFGRGAQKLVF
chain 2: CATRIGWGTDTQYF
B2: clone 9.66 (peptide)
chain 1: CAFGRGAQKLVF
chain 2: CATRIGWGTDTQYF

Biological target: HSV-2 virion protein 22 (VP22), encoded by gene UL49 peptide on HLA-B*07:02 (human)
Test: 51Cr release
Conditions: chains alpha TCRAV38-2 CDR3:beta TCRBV5-1 CDR3

Binder	EC50 of peptide [pM]
B1	110
B2	100
